Paper PMC2998437, “S. aureus MscL Is a Pentamer In Vivo but of Variable Stoichiometries In Vitro: Implications for Detergent-Solubilized Membrane Proteins” (PLoS Biology, 2010)

How the values were obtained:
[1] = molecular target: L10C/L89C SaMscL (S. aureus) (UniProt Q6G9L1); assay: cross-linking; in vivo disulfide trapping of double-cysteine mutants in the cell membrane; cells osmotically shocked (water with 1.5 uM copper phenanthroline, 15 min, 37 C) or mock shocked; non-reducing SDS-PAGE, anti-Penta His Western blot
[2] = molecular target: the molecule itself; assay: SEC-MALS; SaMscL purified in LDAO, then exchanged into C8E5 and measured the following day
[3] = molecular target: the molecule itself; assay: cross-linking; purified protein in LDAO (2.1 mM final); 5 ug protein with 2 mM DSS on ice for 5 min; anti-Penta His Western blot
[4] = molecular target: the molecule itself; assay: cross-linking; in vivo disulfide trapping of double-cysteine mutants in the cell membrane; cells osmotically shocked (water with 1.5 uM copper phenanthroline, 15 min, 37 C) or mock shocked; non-reducing SDS-PAGE, anti-Penta His Western blot

L10C/L89C SaMscL (from UniProt Q6G9L1 1-120) (natural protein)
stoichiometry N [1]: 5

B1: S. aureus mechanosensitive channel of large conductance (SaMscL) (natural protein, UniProt Q6G9L1 1-120, looked up)
chain: MLKEFKEFALKGNVLDLAIAVVMGAAFNKIISSLVENIIMPLIGKIFGSVDFAKEWSFWGIKYGLFIQSVIDFIIIAFALFIFVKIANTLMKKEEAEEEAVVEENVVLLTEIRDLLREKK
notes: MscL, large-conductance mechanosensitive channel of S. aureus, GenBank CAG43065; printed monomer mass 14.4 kDa; the printed GenBank entry holds; Pentamer in Triton X-100 and C8E5 and in vivo; tetramer in LDAO (copies would then be 4); Expressed from two vectors (pET21a, pB10) with no difference reported; also called S. aureus MscL; source: E. coli PB116 (pET21a), purified (DM extraction, Ni-NTA, …)
stoichiometry N [2]: 5 | stoichiometry N [3]: 4

B2: L10C/M91C SaMscL (natural protein)
chain: MLKEFKEFACKGNVLDLAIAVVMGAAFNKIISSLVENIIMPLIGKIFGSVDFAKEWSFWGIKYGLFIQSVIDFIIIAFALFIFVKIANTLCKKEEAEEEAVVEENVVLLTEIRDLLREKK
notes: also called L10C/M91C protein; source: bacterial cultures induced with 1 mM IPTG, in the cell membrane (cells lysed in sample buffer)
stoichiometry N [4]: 5
